Laboratory results: paper PMC4425688

Substrate: Nc1ccn([C@@H]2O[C@H](COP(=O)(O)OP(=O)(O)OP(=O)(O)O)[C@@H](O)[C@H]2O)c(=O)n1
Assay: purified protein
Assay type: biochemical, Bacteroides thetaiotaomicron
Conditions: 6 mM KDN, 10 mM MgCl2, Tris pH 7.5, 25 °C

B1: BT1715 (Bacteroides thetaiotaomicron VPI-5482) (protein)
chain: MNYAFVVQARLGSTRLPGKILKPFYGNQSILDLMVHKLSAISNIPVIIATTNSVINEPIEKKALALGVKCFRGEENDVLKRFIDVAEYFDIQGIFRICSDNPFLDVHAARQLVEIAMKSCNDYISFDIDGTPSIKTHFGFWGEFVTLDALKRVIGFTDDLLYREHVTNYIYSHPELFNIQWISGSPVVSKHHNIRLTIDTLEDFSVAQRIYRDLQEKRVEISIEVIVDYVRRHAEYIQLMKQQIKKNSK
Question: What does the source list for B1?
Answer: Km: 510 ± 30 µM; kcat: 0.017 ± 0.0005 s⁻¹
